Results from patent US20190169308A1 (ALLIGATOR BIOSCIENCE, published 2019).

B1: 1204/1205 (antibody, V domains shown)
VH: EVQLLESGGGLVQPGGSLRLSCAASGFTFSSYYMGWVRQAPGKGLEWVSGIGSYYGYTGYADSVKGRFTISRDNSKNTLYLQMNSLRAEDTAVYYCARAYYDYNYYYAYFDYWGQGTLVTVSS
VL: DIQMTQSPSSLSASVGDRVTITCRASQSISSYLNWYQQKPGKAPKLLIYAASSLQSGVPSRFSGSGSGTDFTLTISSLQPEDFATYYCQQSVPHYPFTFGQGTKLEIK
B2: 1626/1627 (antibody, V domains shown)
VH: EVQLLESGGGLVQPGGSLRLSCAASGFTFGGYSMYWVRQAPGKGLEWVSSIGGYYYSTYYADSVKGRFTISRDNSKNTLYLQMNSLRAEDTAVYYCARSYYGSIDYWGQGTLVTVSS
VL: DIQMTQSPSSLSASVGDRVTITCRASQSISSYLNWYQQKPGKAPKLLIYAASSLQSGVPSRFSGSGSGTDFTLTISSLQPEDFATYYCQQGTGYGPLTFGQGTKLEIK
B3: 1200/1201 (antibody, V domains shown)
VH: EVQLLESGGGLVQPGGSLRLSCAASGFTFSSYAMSWVRQAPGKGLEWVSGISGGGGGTYYADSVKGRFTISRDNSKNTLYLQMNSLRAEDTAVYYCARDVAYFDYWGQGTLVTVSS
VL: DIQMTQSPSSLSASVGDRVTITCRASQSISSYLNWYQQKPGKAPKLLIYAASSLQSGVPSRFSGSGSGTDFTLTISSLQPEDFATYYCQQYYIPHTFGQGTKLEIK
B4: 1620/1621 (antibody, V domains shown)
VH: EVQLLESGGGLVQPGGSLRLSCAASGFTFSGYYMYWVRQAPGKGLEWVSGISSSGSYTYYADSVKGRFTISRDNSKNTLYLQMNSLRAEDTAVYYCARSVGPYFDYWGQGTLVTVSS
VL: DIQMTQSPSSLSASVGDRVTITCRASQSISSYLNWYQQKPGKAPKLLIYAASSLQSGVPSRFSGSGSGTDFTLTISSLQPEDFATYYCQQGVGPYTFGQGTKLEIK

Tests used:
[1] = biological target: T1, CD40-Fc (Ancell #504-820) (human, UniProt P25942 21-193); test: ELISA, coated CD40-Fc
T1 construct: not shown: Fc part, bought reagent, not described
Protocol: (§1) ELISA plates (Greiner #655074) were coated with 50 μl/well of recombinant human OX40 (R&D #1493-CD), CD40-Fc (Ancell #504-820) or CD137 (R&D #838-4B) diluted to a final concentration of 0.5 μg/ml in PBS for 1h at 37° C. or overnight at 4° C. Plates were washed with PBS+0.05% TWEEN20 (PBST), followed by block with PBST+1% bovine serum albumin (BSA). Antibody samples were prepared as serial 1/10 dilutions from 10-0.01 μg/ml in PBST+1% BSA and incubated for 1 h in room temperature, followed by detection using a horse radish peroxidase-conjugated anti-human kappa light chain antibody (AbD Serotec #STAR127P) and developed using SuperSignal ELISA Pico Chemiluminescent substrate (Pierce ThermoScientific #37069).

[2] = biological target: T2, recombinant human OX40 (R&D #1493-CD) (human, UniProt P43489 29-216, limits assumed); test: ELISA, coated OX40
T2 sequence (looked up): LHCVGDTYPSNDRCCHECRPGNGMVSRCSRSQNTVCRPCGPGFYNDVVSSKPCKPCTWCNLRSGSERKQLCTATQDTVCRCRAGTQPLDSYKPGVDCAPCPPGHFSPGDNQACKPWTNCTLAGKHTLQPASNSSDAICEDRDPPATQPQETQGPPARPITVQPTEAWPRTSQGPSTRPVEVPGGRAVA
Protocol: as §1

[3] = biological target: T3, human/mouse CD137 chimera 1552; test: flow cytometry, 293-F cells with CD137 chimera
T3 construct: on transfected FreeStyle 293-F cells
Protocol: (§2) The ability of each antibody to bind to a panel of human/mouse CD137 chimeras expressed on the surface of transfected cells was analyzed by flow cytometry.
(§3) The chimeras were designed by exchanging domains or modules of the human CD137 with the corresponding mouse domain (FIG. 7). Genes of CD137 human/mouse chimeras were synthesized (GenScript) and constructs cloned into pcDNA3.1 vector (Invitrogen) and transiently transfected into FreeStyle 293-F cells (Invitrogen). The transfected cells were incubated with CD137 antibodies and control antibodies, followed by incubation with anti-human IgG-PE (Jackson Immunoresearch) for detection and analyzed with FACS Verse (BD Biosciences). Binding to the different chimeric constructs was calculated as relative MFI compared to the binding of the isotype control, followed by normalization to the full-length human CD137 construct to minimize the effect of affinity differences between individual antibodies.

[4] = biological target: T4, human/mouse CD137 chimera 1555; test: flow cytometry, 293-F cells with CD137 chimera
T4 construct: on transfected FreeStyle 293-F cells
Protocol: as §2, §3

[5] = biological target: T5, human/mouse CD137 chimera 1554; test: flow cytometry, 293-F cells with CD137 chimera
T5 construct: on transfected FreeStyle 293-F cells
Protocol: as §2, §3

[6] = biological target: T6, human/mouse CD137 chimera 1550; test: flow cytometry, 293-F cells with CD137 chimera
T6 construct: on transfected FreeStyle 293-F cells
Protocol: as §2, §3

[7] = biological target: T7, human/mouse CD137 chimera 1553; test: flow cytometry, 293-F cells with CD137 chimera
T7 construct: on transfected FreeStyle 293-F cells
Protocol: as §2, §3

[8] = biological target: T8, human/mouse CD137 chimera 1551; test: flow cytometry, 293-F cells with CD137 chimera
T8 construct: on transfected FreeStyle 293-F cells
Protocol: as §2, §3

[9] = biological target: T9, full-length human CD137 construct 1030 (human, UniProt Q07011 24-255); test: flow cytometry, 293-F cells with full-length CD137 (reference of the normalization)
T9 construct: whole, on cells; on transfected FreeStyle 293-F cells; also called Full-length CD137
Protocol: as §2, §3

[10] = biological target: T10, recombinant human CD137-Fc (R&D #838-4B) (human, UniProt Q07011 24-186); test: ELISA, coated CD137-Fc
T10 construct: bought; also called CD137 (R&D #838-4B); not shown: Fc part, bought reagent, not described
Protocol: Binding of CD137 antibodies to recombinant human CD137 was determined by sandwich ELISA. Briefly, ELISA plates (Greiner #655074) coated with recombinant human CD137-Fc (R&D #838-4B) were incubated with serial dilutions of the various CD137 antibodies to be investigated. CD137 antibodies were detected using HRP-conjugated goat-anti-human kappa light chain (AbD Serotec #STAR127P) and developed with SuperSignal ELISA Pico Chemiluminescent substrate (Pierce #37069). EC50 values of the various antibodies were determined in 2-6 separate experiments.

[11] = biological target: T11, human CD137 on transfected CHO cells (human, UniProt Q07011 24-186; P25942 194-277, limits assumed); test: flow cytometry, CHO-huCD137; 95% CI of EC50
T11 construct: extracellular domain;domain: transmembrane and intracellular part; also called CHO-huCD137; CHOhCD137
Protocol: Binding and EC50 was determined using flow cytometric analysis of CHO cells transfected with human CD137, cynomolgus CD137 or empty vector. The extracellular part of human or cynomolgus CD137 was fused to the transmembrane and intracellular part of human CD40 and cloned into pcDNA3.1. The vector was subsequently stably transfected into CHO cells. […] CD137-transfected and empty vector-transfected cells were incubated with CD137 antibodies for at least 1h at 4° C. to saturate the binding. In order to minimize antibody internalization, 0.05% sodium azide was used in the incubation buffer and all work was performed on ice. […] Directly after staining the cells were fixed with a paraformaldehyde solution (10x concentrate BD CellFIX, BD biosciences #340181). Cells were analyzed by flow cytometry using FACSVerse (BD Biosciences). The median fluorescence intensity (MFI) for each sample was determined and the dose response data was analysed using Graph Pad Prism.
MFI data was normalized for each antibody, where 0% is defined as the lowest value and 100% is the highest value in the dose titration for each antibody.

T1 sequence (P25942 21-193 limits assumed): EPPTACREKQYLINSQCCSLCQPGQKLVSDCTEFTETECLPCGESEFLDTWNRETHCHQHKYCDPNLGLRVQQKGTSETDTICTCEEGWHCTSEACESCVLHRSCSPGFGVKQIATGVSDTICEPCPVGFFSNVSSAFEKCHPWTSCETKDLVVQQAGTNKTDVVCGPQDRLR
T9 sequence (Q07011 24-255): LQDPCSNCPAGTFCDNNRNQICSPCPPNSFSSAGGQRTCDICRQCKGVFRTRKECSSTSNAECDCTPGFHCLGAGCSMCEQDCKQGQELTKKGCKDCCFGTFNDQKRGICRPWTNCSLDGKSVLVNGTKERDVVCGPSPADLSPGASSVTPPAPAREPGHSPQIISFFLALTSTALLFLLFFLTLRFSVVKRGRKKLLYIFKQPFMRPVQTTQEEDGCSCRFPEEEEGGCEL
T11 sequence (Q07011 other isoform, or with tags, fused parts or gaps limits assumed): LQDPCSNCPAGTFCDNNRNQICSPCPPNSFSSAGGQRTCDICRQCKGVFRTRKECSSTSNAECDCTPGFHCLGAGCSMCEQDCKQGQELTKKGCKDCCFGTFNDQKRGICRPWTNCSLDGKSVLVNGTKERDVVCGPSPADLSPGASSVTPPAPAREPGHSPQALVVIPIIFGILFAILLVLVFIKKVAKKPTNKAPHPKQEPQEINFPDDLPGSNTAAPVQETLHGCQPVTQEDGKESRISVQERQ
T10 sequence (Q07011 24-186 limits assumed): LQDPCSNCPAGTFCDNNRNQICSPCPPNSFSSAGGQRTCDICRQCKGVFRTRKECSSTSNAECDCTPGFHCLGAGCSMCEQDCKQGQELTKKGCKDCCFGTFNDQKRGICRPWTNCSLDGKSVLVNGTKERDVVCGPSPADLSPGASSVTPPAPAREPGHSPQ

Binder	binding result [1]	binding result [2]	MFI/isotype control normalized to full-length human CD137 [3]	MFI/isotype control normalized to full-length human CD137 [4]	MFI/isotype control normalized to full-length human CD137 [5]	MFI/isotype control normalized to full-length human CD137 [6]	MFI/isotype control normalized to full-length human CD137 [7]	MFI/isotype control normalized to full-length human CD137 [8]	MFI/isotype control normalized to full-length human CD137 [9]	EC50 [10] [pM]	EC50 [11] [µg/mL]
B1	no binding (tested: 10 µg/ml)	no binding (tested: 10 µg/ml)	0.13	0.28	0.73	0.07	0.85	0.11			
B2	no binding (tested: 10 µg/ml)	no binding (tested: 10 µg/ml)	0.11	0.29	0.12	0.1	0.14	0.11			
B3	no binding (tested: 10 µg/ml)	no binding (tested: 10 µg/ml)	0.05	0.24	0.84	0.05	0.65	0.04	1	390	0.2 to 0.36
B4	no binding (tested: 10 µg/ml)	no binding (tested: 10 µg/ml)	0.18	0.32	0.17	0.17	0.17	0.33			
